{
  "source": "paper PMC6030175",
  "about": "“A senataxin-associated exonuclease SAN1 is required for resistance to DNA interstrand cross-links”",
  "target": "T1, SAN1 D90A (catalytically inactive) (mouse or human ( for the …, UniProt Q6RI63 1-786, D90A))",
  "T1 sequence": "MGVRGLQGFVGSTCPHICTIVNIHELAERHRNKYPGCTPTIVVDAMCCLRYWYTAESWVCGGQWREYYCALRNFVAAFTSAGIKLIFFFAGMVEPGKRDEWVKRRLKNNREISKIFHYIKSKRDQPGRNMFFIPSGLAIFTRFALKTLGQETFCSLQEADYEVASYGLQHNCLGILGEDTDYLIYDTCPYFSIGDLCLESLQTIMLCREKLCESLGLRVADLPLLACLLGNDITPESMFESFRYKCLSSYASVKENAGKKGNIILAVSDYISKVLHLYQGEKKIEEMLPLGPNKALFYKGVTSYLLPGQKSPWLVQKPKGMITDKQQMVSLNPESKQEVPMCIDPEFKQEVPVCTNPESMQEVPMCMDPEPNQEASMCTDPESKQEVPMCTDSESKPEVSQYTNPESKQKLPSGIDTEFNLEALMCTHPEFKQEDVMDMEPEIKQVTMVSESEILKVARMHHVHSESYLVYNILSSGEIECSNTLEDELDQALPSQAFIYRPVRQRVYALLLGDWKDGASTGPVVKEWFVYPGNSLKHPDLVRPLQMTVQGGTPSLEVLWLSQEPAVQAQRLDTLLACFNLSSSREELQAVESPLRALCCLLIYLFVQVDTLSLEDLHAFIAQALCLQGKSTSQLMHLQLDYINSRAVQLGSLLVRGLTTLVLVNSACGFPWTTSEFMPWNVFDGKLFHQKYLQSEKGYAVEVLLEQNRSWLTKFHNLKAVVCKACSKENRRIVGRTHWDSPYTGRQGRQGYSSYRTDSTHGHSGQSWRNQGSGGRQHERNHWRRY",
  "assay": "EMSA; 5 mM Mg2+; protein 0, 1, 5, 10, 20 nM; DNA 1 nM; EMSA: 20 mM HEPES pH 7.4, 0.1% NP-40, 0.1 M KCl, 5 mM MgCl2, 1% glycerol, 0.25 ug/uL BSA, 1 mM DTT, 30 min, room temperature; 5% native gel, 0.5x TBE",
  "details": "protein: recombinant; tags: Strep-tag II (murine, C-terminal) or Strep-FLAG (human); label: 5' 32P; single strand 50 nt",
  "data": [
    {"binder": "AACGTCATAGACGATTACATTGCTAGGACATCTTTGCCCACGTTGACCCA (ssDNA)", "note": "[X4]", "values": [
      {"measurement": "binding result", "value": "binds"}
    ]}
  ]
}
